Data published in PMC7795263, “Chaperone-Assisted Mitotic Actin Remodeling by BAG3 and HSPB8 Involves the Deacetylase HDAC6 and Its Substrate Cortactin” (International Journal of Molecular Sciences, 2020).

Target: T1, myc-cortactin (UniProt Q60598 1-546)
T1 construct: cortactin, myc-tagged plasmid, gift from Dr Zhan (Holland Laboratory, American Red Cross); human cortactin would be Q14247; The PLA used an anti-cortactin antibody, which may also detect endogenous human cortactin of HeLa cells; source: HeLa (parental), transfected (Lipofectamine 2000), in fixed cells
Assay: proximity ligation; Duolink in situ PLA with anti-GFP and anti-cortactin antibodies in fixed HeLa cells cotransfected with GFP-HDAC6 and myc-cortactin; asynchronous or synchronized in mitosis (double thymidine block, release 8-9 h); siCtl or siBAG3; PLA foci per cell counted by confocal microscopy
Details: partners not purified

T1 sequence (Q60598 whole entry): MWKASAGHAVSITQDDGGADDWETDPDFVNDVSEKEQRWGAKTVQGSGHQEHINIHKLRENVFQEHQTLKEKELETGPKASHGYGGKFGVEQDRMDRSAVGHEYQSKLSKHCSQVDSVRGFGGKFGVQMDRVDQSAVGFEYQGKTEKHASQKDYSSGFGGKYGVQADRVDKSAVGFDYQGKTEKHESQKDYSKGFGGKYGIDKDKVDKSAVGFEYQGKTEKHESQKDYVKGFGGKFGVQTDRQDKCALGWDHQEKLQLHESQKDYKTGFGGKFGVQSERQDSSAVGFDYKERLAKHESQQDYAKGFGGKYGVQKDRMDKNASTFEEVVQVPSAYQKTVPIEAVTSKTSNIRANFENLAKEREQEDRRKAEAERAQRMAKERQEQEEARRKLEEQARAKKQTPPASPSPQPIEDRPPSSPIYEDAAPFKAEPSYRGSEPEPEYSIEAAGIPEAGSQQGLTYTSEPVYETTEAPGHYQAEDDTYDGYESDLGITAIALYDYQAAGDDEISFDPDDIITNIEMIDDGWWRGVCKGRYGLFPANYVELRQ

B1: GFP-HDAC6 (histone deacetylase 6, WT) (enzyme, UniProt Q9UBN7 1-1215, looked up)
chain: MTSTGQDSTTTRQRRSRQNPQSPPQDSSVTSKRNIKKGAVPRSIPNLAEVKKKGKMKKLGQAMEEDLIVGLQGMDLNLEAEALAGTGLVLDEQLNEFHCLWDDSFPEGPERLHAIKEQLIQEGLLDRCVSFQARFAEKEELMLVHSLEYIDLMETTQYMNEGELRVLADTYDSVYLHPNSYSCACLASGSVLRLVDAVLGAEIRNGMAIIRPPGHHAQHSLMDGYCMFNHVAVAARYAQQKHRIRRVLIVDWDVHHGQGTQFTFDQDPSVLYFSIHRYEQGRFWPHLKASNWSTTGFGQGQGYTINVPWNQVGMRDADYIAAFLHVLLPVALEFQPQLVLVAAGFDALQGDPKGEMAATPAGFAQLTHLLMGLAGGKLILSLEGGYNLRALAEGVSASLHTLLGDPCPMLESPGAPCRSAQASVSCALEALEPFWEVLVRSTETVERDNMEEDNVEESEEEGPWEPPVLPILTWPVLQSRTGLVYDQNMMNHCNLWDSHHPEVPQRILRIMCRLEELGLAGRCLTLTPRPATEAELLTCHSAEYVGHLRATEKMKTRELHRESSNFDSIYICPSTFACAQLATGAACRLVEAVLSGEVLNGAAVVRPPGHHAEQDAACGFCFFNSVAVAARHAQTISGHALRILIVDWDVHHGNGTQHMFEDDPSVLYVSLHRYDHGTFFPMGDEGASSQIGRAAGTGFTVNVAWNGPRMGDADYLAAWHRLVLPIAYEFNPELVLVSAGFDAARGDPLGGCQVSPEGYAHLTHLLMGLASGRIILILEGGYNLTSISESMAACTRSLLGDPPPLLTLPRPPLSGALASITETIQVHRRYWRSLRVMKVEDREGPSSSKLVTKKAPQPAKPRLAERMTTREKKVLEAGMGKVTSASFGEESTPGQTNSETAVVALTQDQPSEAATGGATLAQTISEAAIGGAMLGQTTSEEAVGGATPDQTTSEETVGGAILDQTTSEDAVGGATLGQTTSEEAVGGATLAQTTSEAAMEGATLDQTTSEEAPGGTELIQTPLASSTDHQTPPTSPVQGTTPQISPSTLIGSLRTLELGSESQGASESQAPGEENLLGEAAGGQDMADSMLMQGSRGLTDQAIFYAVTPLPWCPHLVAVCPIPAAGLDVTQPCGDCGTIQENWVCLSCYQVYCGRYINGHMLQHHGNSGHPLVLSYIDLSAWCYYCQAYVHHQALLDVKNIAHQNKFGEDMPHPH
notes: histone deacetylase 6 (HDAC6), wild type, expressed from peGFP.N1-HDAC6 WT (Addgene 36188); The pEGFP-N1 vector usually places GFP at the C-terminus of the insert (surmised); The Addgene 36188 insert is recalled to be human HDAC6; also called peGFP.N1-HDAC6 WT; source: HeLa (parental), transfected (Lipofectamine 2000), in fixed cells
  fold change of PLA foci per cell, siBAG3 mitotic cells against siCtl mitotic cells: ~2 fold
